To fix the notation:
B1: peptide 12, c(*aRGDA*A) (peptide)
peptide: cyclo([dNMeA]RGDA[NMeA])
notes: NMe(1,6) scaffold cyclic hexapeptide; also called the drug

*1 amine or outer side, *2 acyl side, *3 side chain or, on linkers, in order; H or OH if unused. Where a SMILES comes first, the peptide text is derived from it. [ ]: non-standard residue; d: D form. Arg(ω,ω'-(C6H13OCO)2) = CCCCCCOC(=O)N=C(NCCC[C@H](N)C(=O)O)NC(=O)OCCCCCC; X1 = CCCCCCOC(=O)N=C(NCCC[C@@H](N[*:1])C(=O)[*:2])NC(=O)OCCCCCC; dNMeR = CN[C@H](CCCNC(=N)N)C(=O)O; NMeD = CN[C@@H](CC(=O)O)C(=O)O; NMeV = CN[C@H](C(=O)O)C(C)C; NMeA = CN[C@@H](C)C(=O)O; dNMeA = CN[C@H](C)C(=O)O

For orientation: IC50 means the concentration at which inhibition is half-maximal. High values mean weaker potency in that assay, low ones greater potency in that assay.

T2 sequence (P06756 31-992 limits assumed, chain 1 of 2): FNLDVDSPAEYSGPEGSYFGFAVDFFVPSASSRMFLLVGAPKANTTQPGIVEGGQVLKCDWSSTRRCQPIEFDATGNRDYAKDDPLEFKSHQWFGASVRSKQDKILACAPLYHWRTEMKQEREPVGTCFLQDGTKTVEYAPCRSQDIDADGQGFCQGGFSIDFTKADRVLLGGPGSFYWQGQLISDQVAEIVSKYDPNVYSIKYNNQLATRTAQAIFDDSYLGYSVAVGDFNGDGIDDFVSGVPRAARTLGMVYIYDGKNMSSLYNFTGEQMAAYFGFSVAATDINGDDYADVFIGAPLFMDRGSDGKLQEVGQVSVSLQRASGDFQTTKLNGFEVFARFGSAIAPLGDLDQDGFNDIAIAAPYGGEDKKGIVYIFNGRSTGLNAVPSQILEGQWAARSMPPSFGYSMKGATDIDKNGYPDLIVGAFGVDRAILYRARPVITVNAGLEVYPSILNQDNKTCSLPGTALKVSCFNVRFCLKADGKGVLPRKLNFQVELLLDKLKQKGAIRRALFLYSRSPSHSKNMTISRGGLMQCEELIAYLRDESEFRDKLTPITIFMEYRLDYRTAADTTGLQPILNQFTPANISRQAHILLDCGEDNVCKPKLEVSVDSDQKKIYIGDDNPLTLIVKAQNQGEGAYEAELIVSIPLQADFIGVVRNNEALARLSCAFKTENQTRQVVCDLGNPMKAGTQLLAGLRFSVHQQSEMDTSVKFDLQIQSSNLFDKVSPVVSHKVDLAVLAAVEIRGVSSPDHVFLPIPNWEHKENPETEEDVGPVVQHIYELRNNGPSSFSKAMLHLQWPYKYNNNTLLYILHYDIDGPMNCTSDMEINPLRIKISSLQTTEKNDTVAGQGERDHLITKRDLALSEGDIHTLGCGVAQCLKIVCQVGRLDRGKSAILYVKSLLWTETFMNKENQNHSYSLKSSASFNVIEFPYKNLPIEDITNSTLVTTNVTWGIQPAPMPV
T2 sequence (P26012 43-684 limits assumed, chain 2 of 2): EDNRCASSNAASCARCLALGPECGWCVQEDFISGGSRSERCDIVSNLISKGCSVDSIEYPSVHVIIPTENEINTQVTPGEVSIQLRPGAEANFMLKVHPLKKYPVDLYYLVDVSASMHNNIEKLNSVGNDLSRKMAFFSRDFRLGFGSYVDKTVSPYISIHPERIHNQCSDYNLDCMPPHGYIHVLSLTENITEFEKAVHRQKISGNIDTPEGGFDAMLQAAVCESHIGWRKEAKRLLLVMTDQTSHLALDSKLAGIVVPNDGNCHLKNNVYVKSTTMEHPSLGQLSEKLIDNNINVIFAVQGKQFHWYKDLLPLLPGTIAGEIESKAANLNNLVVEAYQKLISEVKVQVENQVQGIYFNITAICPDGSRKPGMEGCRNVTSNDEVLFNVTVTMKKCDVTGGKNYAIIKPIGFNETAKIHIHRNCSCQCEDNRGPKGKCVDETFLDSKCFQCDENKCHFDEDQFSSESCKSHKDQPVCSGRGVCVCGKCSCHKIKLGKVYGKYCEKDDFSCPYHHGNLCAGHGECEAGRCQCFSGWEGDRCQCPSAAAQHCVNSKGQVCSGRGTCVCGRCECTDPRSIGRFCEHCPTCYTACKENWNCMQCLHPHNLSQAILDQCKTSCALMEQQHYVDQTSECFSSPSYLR

Tested on in the first data set: not listed separately
As to the kind of experiment: shake flask in triplicate (rotator; centrifuged); both phases by HPLC-MS/MS; mebendazole reference. The following applies: PBS pH 7.4, mutually saturated, not stated C, DMSO stock (small aliquot).
On to `COC(=O)Nc1nc2cc(C(=O)c3ccccc3)ccc2[nH]1`, for which the “log D (1-octanol / PBS pH 7.4)” value came out at 3.04 log units.

On to `CCCCCCOC(=O)N=C(NCCC[C@@H]1NC(=O)[C@H](CC(C)C)NC(=O)CNC(=O)[C@@H]2CCCN2C(=O)[C@@H]2CCCN2C(=O)[C@H](CC(C)C)NC(=O)[C@H](CC(=O)O)NC(=O)CNC1=O)NC(=O)OCCCCCC` (cyclo(LPPGL[Arg(ω,ω'-(C6H13OCO)2)]GD)), for which the “log D (1-octanol / PBS pH 7.4)” value was over 4.5 log units.

In the case of `CCCCCCOC(=O)N=C(NCCC[C@@H]1NC(=O)[C@@H](C(C)C)N(C)C(=O)[C@H](C)N(C)C(=O)[C@H](C)NC(=O)[C@H](CC(=O)OC)NC(=O)CNC1=O)NC(=O)OCCCCCC`, the “log D (1-octanol / PBS pH 7.4)” value was found to be 4.86 log units.

Regarding `CC(C)[C@H]1C(=O)N[C@@H](CCCNC(=N)N)C(=O)NCC(=O)N[C@@H](CC(=O)O)C(=O)N[C@H](Cc2ccccc2)C(=O)N1C`, the “log D (1-octanol / PBS pH 7.4)” value is listed as under −1 log units.

Take `CCCCCCOC(=O)N=C(NCCC[C@H]1NC(=O)[C@H](C(C)C)N(C)C(=O)[C@@H](C)N(C)C(=O)[C@@H](C)NC(=O)[C@@H](CC(=O)OC)NC(=O)CNC1=O)NC(=O)OCCCCCC` (cyclo(G[dD](OMe)[dA][dNMeA][NMeV][X1])): the “log D (1-octanol / PBS pH 7.4)” value is given as over 4.5 log units.

For the molecule `CC(C)C[C@@H]1NC(=O)CNC(=O)[C@@H]2CCCN2C(=O)[C@@H]2CCCN2C(=O)[C@H](CC(C)C)NC(=O)[C@H](CC(=O)O)NC(=O)CNC(=O)[C@H](CCCNC(=N)N)NC1=O` (cyclo(RGDLPPGL)), the “log D (1-octanol / PBS pH 7.4)” value was under −1 log units.

Turning to `CC(C)C[C@@H]1NC(=O)[C@H](CC(=O)O)NC(=O)CNC(=O)[C@H](CCCNC(=N)N)NC(=O)[C@H](Cc2ccccc2)NC(=O)[C@@H]2CCCN2C(=O)[C@@H]2CCCN2C(=O)[C@H](CC(C)C)NC(=O)[C@H](C)NC1=O` (cyclo(RGDLALPPF)), the “log D (1-octanol / PBS pH 7.4)” value is reported as −0.19 log units.

Consider `CCCCCCOC(=O)N=C(NCCC[C@@H]1NC(=O)[C@H](C(C)C)N(C)C(=O)[C@@H](Cc2ccccc2)NC(=O)[C@H](CC(=O)O)NC(=O)CNC1=O)NC(=O)OCCCCCC`, for which the “log D (1-octanol / PBS pH 7.4)” value is recorded as 3.95 log units.

Regarding `CCCCCCOC(=O)N=C(NCCC[C@@H]1NC(=O)[C@H](Cc2ccccc2)NC(=O)[C@@H]2CCCN2C(=O)[C@@H]2CCCN2C(=O)[C@H](CC(C)C)NC(=O)[C@H](C)NC(=O)[C@H](CC(C)C)NC(=O)[C@H](CC(=O)O)NC(=O)CNC1=O)NC(=O)OCCCCCC` (cyclo(ALPPF[Arg(ω,ω'-(C6H13OCO)2)]GDL)), the “log D (1-octanol / PBS pH 7.4)” value is reported as over 4.5 log units.

Regarding `CC(C)[C@@H]1C(=O)N[C@@H](CCCNC(=N)N)C(=O)NCC(=O)N[C@@H](CC(=O)O)C(=O)N[C@@H](C)C(=O)N(C)[C@@H](C)C(=O)N1C`, the “log D (1-octanol / PBS pH 7.4)” value was under −1 log units.

With `CCCCCCOC(=O)NC(=N)NCCC[C@@H]1NC(=O)[C@@H](C(C)C)N(C)C(=O)[C@H](C)N(C)C(=O)[C@H](C)NC(=O)[C@H](CC(=O)OC)NC(=O)CNC1=O`, the “log D (1-octanol / PBS pH 7.4)” value is given as 1.85 log units.

In the next data set the target is T1, human αvβ5-integrin (human, UniProt P06756 31-992; P18084 24-719, limits assumed).
T1 construct: Soluble integrin bought from Millipore
T1 sequence (P06756 31-992 limits assumed, chain 1 of 2): as the sequence (P06756 31-992 limits assumed, chain 1 of 2) above
T1 sequence (P18084 24-719 limits assumed, chain 2 of 2): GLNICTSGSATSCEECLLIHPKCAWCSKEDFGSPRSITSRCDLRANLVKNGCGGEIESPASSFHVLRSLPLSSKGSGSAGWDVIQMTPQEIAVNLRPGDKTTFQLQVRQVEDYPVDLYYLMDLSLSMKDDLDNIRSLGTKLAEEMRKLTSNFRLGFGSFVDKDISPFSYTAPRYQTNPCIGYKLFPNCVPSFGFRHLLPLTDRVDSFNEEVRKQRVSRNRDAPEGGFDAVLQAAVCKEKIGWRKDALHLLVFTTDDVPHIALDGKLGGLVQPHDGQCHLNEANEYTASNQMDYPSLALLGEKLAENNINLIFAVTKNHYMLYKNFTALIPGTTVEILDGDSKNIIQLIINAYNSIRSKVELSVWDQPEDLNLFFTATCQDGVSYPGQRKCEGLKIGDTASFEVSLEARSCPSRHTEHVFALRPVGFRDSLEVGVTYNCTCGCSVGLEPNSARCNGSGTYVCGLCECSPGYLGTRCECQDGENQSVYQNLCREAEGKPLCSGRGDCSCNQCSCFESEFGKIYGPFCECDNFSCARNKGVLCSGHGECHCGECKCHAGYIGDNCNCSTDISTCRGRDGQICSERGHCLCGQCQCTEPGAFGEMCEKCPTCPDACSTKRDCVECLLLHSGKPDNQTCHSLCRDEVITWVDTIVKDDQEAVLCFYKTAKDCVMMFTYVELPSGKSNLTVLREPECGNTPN
As to the kind of experiment: solid-phase competition assay: soluble human αvβ5 on coated vitronectin.
Conditions: not given
Regarding cyclo([dNMeR]GDA[NMeA]A) (NMe(1,5) scaffold cyclic hexapeptide) [peptide 5, c(*rGDA*AA)], the IC50 is 0.17 µM.

B1 returned an IC50 of 1.5 µM.

The next data set addresses T2, human αvβ8-Integrin (human, UniProt P06756 31-992; P26012 43-684).
T2 construct: Soluble integrin bought from R&D
As to the kind of experiment: solid-phase competition assay; value given for the internal standard.
Conditions: not given
For the molecule RTDLDSLRT (Internal standard for αvβ6 and αvβ8) [linear peptide RTDLDSLRT], the IC50 lay in the range of 0.008 to 0.1 µM.

For the next data set, the target named is T3, human αvβ6-Integrin (human, UniProt P06756 31-992; P18564 22-707, limits assumed).
T3 construct: Soluble integrin bought from R&D
T3 sequence (P06756 31-992 limits assumed, chain 1 of 2): as the sequence (P06756 31-992 limits assumed, chain 1 of 2) above
T3 sequence (P18564 22-707 limits assumed, chain 2 of 2): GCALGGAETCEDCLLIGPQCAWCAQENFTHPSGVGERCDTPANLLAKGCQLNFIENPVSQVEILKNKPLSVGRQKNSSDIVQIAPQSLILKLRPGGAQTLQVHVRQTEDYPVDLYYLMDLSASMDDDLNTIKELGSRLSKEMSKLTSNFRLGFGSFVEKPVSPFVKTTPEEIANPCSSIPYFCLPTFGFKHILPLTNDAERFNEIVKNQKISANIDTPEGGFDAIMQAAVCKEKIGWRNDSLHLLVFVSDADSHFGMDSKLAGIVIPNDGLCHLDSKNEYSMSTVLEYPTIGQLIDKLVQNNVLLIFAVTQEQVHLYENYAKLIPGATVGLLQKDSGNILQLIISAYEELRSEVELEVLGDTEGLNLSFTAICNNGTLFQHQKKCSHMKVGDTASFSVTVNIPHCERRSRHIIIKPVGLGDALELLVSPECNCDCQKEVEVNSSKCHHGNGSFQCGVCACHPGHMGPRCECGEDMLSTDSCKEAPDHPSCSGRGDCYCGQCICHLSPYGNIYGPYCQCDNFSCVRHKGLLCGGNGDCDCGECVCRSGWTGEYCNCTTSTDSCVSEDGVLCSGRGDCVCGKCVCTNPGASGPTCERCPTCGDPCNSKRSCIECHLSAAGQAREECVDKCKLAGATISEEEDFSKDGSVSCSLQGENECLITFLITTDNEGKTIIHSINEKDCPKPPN
Described as above.
Conditions: not given
Consider RTDLDSLRT (Internal standard for αvβ6 and αvβ8) [linear peptide RTDLDSLRT], for which the IC50 was in the range of 0.006 to 0.033 µM.

Another data set has as its target T3, human αvβ6-Integrin. As to the kind of experiment: solid-phase competition assay: soluble human αvβ6 on coated LAP (TGF-β).
Conditions: not given
Consider cyclo([dR]GDA[NMeA][NMeA]) (NMe(5,6) scaffold cyclic hexapeptide) [peptide 23, c(rGDA*A*A)], for which the IC50 was 0.13 µM.

cyclo([dNMeR]GDA[NMeA]A) (NMe(1,5) scaffold cyclic hexapeptide) [peptide 5, c(*rGDA*AA)] showed an IC50 of 0.025 µM.

The molecule cyclo([dNMeR]GDA[NMeA]F) (NMe(1,5) scaffold cyclic hexapeptide) [peptide 33, c(*rGDA*AF)] gave an IC50 of 0.025 µM.

As to cyclo([dNMeR]GDA[NMeA]V) (NMe(1,5) scaffold cyclic hexapeptide) [peptide 32, c(*rGDA*AV)], the IC50 worked out at 0.0038 µM.

In turn, B1 showed an IC50 of 0.77 µM.

The target of another data set is T4, human αvβ3-integrin (human, UniProt P06756 31-992; P05106 27-718).
T4 construct: Soluble integrin bought from R&D; also called integrin subtype αvβ3; αvβ3 receptor
T4 sequence (P06756 31-992 limits assumed, chain 1 of 2): as the sequence (P06756 31-992 limits assumed, chain 1 of 2) above
T4 sequence (P05106 27-718 limits assumed, chain 2 of 2): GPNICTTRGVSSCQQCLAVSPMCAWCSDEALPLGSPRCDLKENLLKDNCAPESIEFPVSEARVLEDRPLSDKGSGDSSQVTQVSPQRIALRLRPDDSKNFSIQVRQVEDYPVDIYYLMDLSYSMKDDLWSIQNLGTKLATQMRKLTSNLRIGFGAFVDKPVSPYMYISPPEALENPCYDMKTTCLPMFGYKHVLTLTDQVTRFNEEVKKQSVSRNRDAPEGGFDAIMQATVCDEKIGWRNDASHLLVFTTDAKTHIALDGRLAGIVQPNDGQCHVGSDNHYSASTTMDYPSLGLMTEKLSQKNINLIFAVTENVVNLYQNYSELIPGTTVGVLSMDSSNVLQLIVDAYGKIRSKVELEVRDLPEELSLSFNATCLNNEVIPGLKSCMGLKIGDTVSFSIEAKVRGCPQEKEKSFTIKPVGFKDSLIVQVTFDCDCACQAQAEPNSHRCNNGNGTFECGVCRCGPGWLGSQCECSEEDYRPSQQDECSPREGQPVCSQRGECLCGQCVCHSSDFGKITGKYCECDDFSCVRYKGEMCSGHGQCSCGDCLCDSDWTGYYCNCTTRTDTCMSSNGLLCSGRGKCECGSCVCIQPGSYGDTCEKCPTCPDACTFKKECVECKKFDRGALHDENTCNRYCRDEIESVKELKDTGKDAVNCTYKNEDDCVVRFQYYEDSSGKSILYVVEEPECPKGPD
Briefly: solid-phase competition assay: soluble human αvβ3 on coated vitronectin.
Conditions: not given
In turn, cyclo([dR]GDA[NMeA][NMeA]) (NMe(5,6) scaffold cyclic hexapeptide) [peptide 23, c(rGDA*A*A)] had an IC50 of 0.073 µM.

In the case of cyclo([dR]G[NMeD]A[NMeA]A) (NMe(3,5) scaffold cyclic hexapeptide) [peptide 17, c(rG*DA*AA)], the IC50 was 2.35 µM.

For the molecule cyclo([dNMeR]GDA[NMeA]A) (NMe(1,5) scaffold cyclic hexapeptide) [peptide 5, c(*rGDA*AA)], the IC50 came to 0.013 µM.

As to cyclo([dNMeR]GDA[NMeA]F) (NMe(1,5) scaffold cyclic hexapeptide) [peptide 33, c(*rGDA*AF)], the IC50 was determined as 0.0044 µM.

For the molecule cyclo([dNMeR]GDA[NMeA]V) (NMe(1,5) scaffold cyclic hexapeptide) [peptide 32, c(*rGDA*AV)], the IC50 amounted to 0.0056 µM.

For B1, the IC50 worked out at 0.0048 µM.

(Values after patent publication US20220016218A1 (YISSUM RESEARCH DEVELOPMENT COMPANY OF THE HEBREW …, published 2022).)
